Data as given in PMC5292753, “Structural analysis and evolution of specificity of the SUMO UFD E1-E2 interactions” (Scientific Reports, 2017).
Like-named read-outs stand apart in the source and are kept apart here. Blank lines part the entries; values can stand above or below the molecule they belong to.

Key:
[1] = target: SUMO E2 (Ubc9) (Homo sapiens) (UniProt P63279); experiment: NMR; details: cited from earlier work
[2] = target: SUMO E2 (Ubc9) (Homo sapiens) (UniProt P63279); details: cited from earlier work
[3] = target: T1, human SUMO E2 conjugating enzyme Ubc9, full length (human, UniProt P63279 1-158, lysines methylated (borane-dimethylamine complex and formaldehyde), only in the complex that was crystallised); experiment: native gel or EMSA; native gel electrophoresis of human E1 UFD domain with Ubc9 (Supplementary Fig. S1); details: both partners purified
T1 construct: SUMO-conjugating enzyme Ubc9, human, full length; Cloned in pET28a; the His tag was removed with thrombin, so a few residues of the vector may remain at the N-terminus; The complex with the UFD was lysine-methylated after gel filtration and only then crystallised; also called hSUMO Ubc9; source: E. coli BL21(DE3) pLysS, purified (Ni-NTA, thrombin, Superdex75 gel filtration); not shown: His6, …
T1 sequence (P63279 whole entry, the tested form may be a part): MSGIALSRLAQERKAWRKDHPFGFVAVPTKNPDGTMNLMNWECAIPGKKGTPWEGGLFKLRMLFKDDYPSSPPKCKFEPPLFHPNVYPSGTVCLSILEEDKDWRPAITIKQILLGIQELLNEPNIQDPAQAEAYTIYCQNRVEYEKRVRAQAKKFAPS

Sequence of SUMO E2 (Ubc9) (Homo sapiens) (P63279 2-158): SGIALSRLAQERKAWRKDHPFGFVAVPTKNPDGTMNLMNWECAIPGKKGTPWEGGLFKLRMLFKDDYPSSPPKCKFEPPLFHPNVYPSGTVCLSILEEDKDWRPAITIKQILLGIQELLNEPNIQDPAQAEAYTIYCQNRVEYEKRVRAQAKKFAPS

Molecule: SUMO E1 Cys domain Cys domain (from UniProt Q9UBT2)
- Kd [1]: 87 µM

Molecule: SUMO E1 UFD UFD (from UniProt Q9UBT2)
- Kd [2]: 1.2 µM

- binding result [3]: binds
B1: human SUMO E1 Uba2 ubiquitin-fold domain (UFD), residues 447-547 (domain or fragment, UniProt Q9UBT2 447-547, looked up)
chain: KPEVTVRLNVHKVTVLTLQDKIVKEKFAMVAPDVQIEDGKGTILISSEEGETEANNHKKLSEFGIRNGSRLQADDFLQDYTLLINILHSEDLGKDVEFEVV
modifications: lysines methylated (borane-dimethylamine complex and formaldehyde), only in the complex that was crystallised
notes: designed from the structure of full-length human SAE1-SAE2 (PDB 1Y8Q); Cloned in pET28a; the His tag was removed with thrombin, so a few residues of the vector may remain at the N-terminus; The complex with Ubc9 was lysine-methylated after gel filtration and only then crystallised; the native gel and the gel filtration used the unmethylated protein; also called E1 UFD domain; HsUba2 UFD; source: …
